From the supplement of paper PMC9170038

The sequences below were run on MS2 coat protein (assay: apparent KD of MS2 coat protein; higher = weaker reporter binding). Details: Eterna round: R107; input ligand: theophylline 2 mM.
In short: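 Designed RNA switches, transcribed on-chip from Illumina sequencing clusters, were titrated with SNAP-549-labelled MS2 coat protein from 0.7 or 1.5 nM to 3 µM in twofold steps. The solution was 100 mM Tris-HCl pH 7.5, 80 mM KCl, 4 mM MgCl2, with constant ligand or without it. Apparent KD is the median over each design's normalised cluster binding-curve fits.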
With “CUGUACAUCUCGGCCGCCACUGCAACAUGUACACAUGGACAUGUACAUGAGGAUCACCCAUGUGGCAGGACCGGGAGGUGUGCAG [SSTryp B #28]” the “apparent KD of MS2 coat protein” value was 309 nM.
For “GAUUGGUAUAGAAGGAGCGUCGAAAAUGGGUAAACAUGAGGAUCACCCAUGUAAAGGGAACGACAGGUAGGUCGCUAUAUUAAUC [AstromonsSSArgB#30]”, the “apparent KD of MS2 coat protein” value was 272 nM.
For “AUUGUGAAGUCGGCCGCCACUGCAUAGUUUAACCUCUUUUAACAUGAGGAUCACCCAUGUAAUGACAGGACCGGGACAAUAGUAA [JR_SSTryptoB_Sub022]”, the “apparent KD of MS2 coat protein” value was 79.7 nM.
For “CAGAACAUGAGGAUCACCCAUGUUAGGGAUACCAGCUCAGACAUGGGCCCUUGGCAGCUCUAUGGCUGACGAAAGUCAGCAUCUG [#16 SameState-TheophyllineA]”, the “apparent KD of MS2 coat protein” value was 3.01 nM.
With “AAGCCCAGGACGGCCGCCACUGUAAAAUGGUGGUUCGCCUGUAAGAACAUGAGGAUCACCCAUGUCAGGACCGGGUCCACGAGUU [theeternabot_exclusion_MS2_Trp_B_46]” the “apparent KD of MS2 coat protein” value was 15.8 nM.
“UUAGUAACGACGGCCGCCACUGAAUUUGAACAUGAGGAUCACCCAUGUAGAGAUCCUAGAAUAAACAGGACCGGGUCUGAUAAUG [Exclusion Tryptophane B GF3]” was tested, and the “apparent KD of MS2 coat protein” value was 120 nM.
“GGAUAGGACAGAAGGAGCGGCAUGGCAGAAACUGCAAUCCUCCUACACGAGGAUCACCCGUGUCAGGUAGGUCGCUGUCCUAUCG [ArgXB 13 #Zipper #MS2Left #StaticStem #Blueprint]” was tested, and the “apparent KD of MS2 coat protein” value was 19 nM.
“ACAUGAGGAUCACCCAUGUAUUACCGGGAAGGAGCGCGUAAGGACGCAGGUAGGUCGCUCGGCGUCGUGCCGGAAGGCACGACGA [#1 Same State - Arginine A Attempt #22 (HarryS)]” was tested, and the “apparent KD of MS2 coat protein” value was 15.6 nM.
For “GUCCGCAGCCGAAGGAGCGCUAGAAGGUGACAUGAGGAUCACCCAUGUGUGUGAUGUGGCUAGCAGGUAGGUCGCGGAGCGGAUU [Exclusion - Arginine B (Freestyle 18)]”, the “apparent KD of MS2 coat protein” value was 76.7 nM.

Same assay, conditions: Eterna round: R107; input ligand: tryptophan 2.4 mM
In the case of “UCAUAUUAGAUAGAUGUAAGGUAUCAUGAUACCAGUAGAUAAUUAUACCCUUGGCAGCAUAACAUGAGGAUCACCCAUGUACAUG [Aa]”, the “apparent KD of MS2 coat protein” value is reported as 17.9 nM.
With “UUGGGUUUGUGAAGGAGCGGGUAUGUUUUCUAGUGGAUCCUAACAUGAGGAUCACCCAUGUCCCAGGUAGGUCGCGCGGGUUUGG [12.U]” the “apparent KD of MS2 coat protein” value was 81.8 nM.
In the case of “UGCCGAGACGUGGAUUACCCAUGUACAGAAGGAGCGCCCGAAAGGGCAGGUAGGUCGCUGAGGACAUGAGGAUCACCCAUGUCGA”, the “apparent KD of MS2 coat protein” value is reported as 43.3 nM.
In the case of “ACGUAUGUCAGAAGGAGCGUCAAUAACAUGAGGAUCACCCAUGUAUUACAUAGGUAUAAUAGACAGGUAGGUCGCUGAAUUCGAA [JR_SSArginiB_Sub022]”, the “apparent KD of MS2 coat protein” value is reported as 27 nM.
For “UUCUACAUGAGGAUCACCCAUGUGGGUGAUACCAGCACUUUUUGGUGCCCUUGGCAGCACAUGAGAAUGCCGUAAAAUCGGCGAU [Ceanteis]”, the “apparent KD of MS2 coat protein” value was 503 nM.
In the case of “GCUACAUGAGGAUCACCCAUGUGUACUGAAGGAGCGGCGGAAACGCCAGGUAGGUCGCAGUAUGUGGCUCUGGGCACGAGAUGGC [SSAA NP+V+V2 #1]”, the “apparent KD of MS2 coat protein” value is reported as 33.7 nM.
In the case of “UAUAACAUGAGGAUCACCCAUGUAAGUGAUACCAGAUAAAUAAUAGUCCCUUGGCAGCAUAUUGGGAAAGUGUAUAAUAUAUAUU [Same State - Theophylline A (Freestyle 2)]”, the “apparent KD of MS2 coat protein” value is reported as 48.1 nM.
“ACGUCAUGGAGAACGUGACGACUUGUCGAUACCAGUGUUUGAUAGCGCCCUUGGCAGCGAACAUGAGGAUCACCCAUGUCAAGGG [#11 SameState-TheophyllineA]” was tested, and the “apparent KD of MS2 coat protein” value was 66.4 nM.
For “GAGACAUCGGGAAGGAGCGCAUCCAAACCACACAUGAGGAUCACCCAUGUAUAAAUAUGCAUGCAGGUAGGUCGCCCGGUAUCCC [Tiisqure]”, the “apparent KD of MS2 coat protein” value was 28.9 nM.
For “CCUAUGCAGUCGGCCGCCACUGAGUCCUCAAUAAUAAAUUAUUAUACAUGAGGAUCACCCAUGUACAGGACCGGGACUGUAUAGG [Ex Tryptophan B 14]”, the “apparent KD of MS2 coat protein” value was 214 nM.
In the case of “CACGAAAGAUCGGCCGCCACUAGCCUGUGUGUACUAGCACAUGAGGAUCACCCAUGUUCUUGCGUUAGGACCGGGAUUGAGCGUG [#05 Exclusion Tryptophan B]”, the “apparent KD of MS2 coat protein” value is reported as 25.5 nM.
“CAGUCAGUCAGUCAAUGAGUGAGGCAUGAAGGAGCGUGGGAAACCACAGGUAGGUCGCAUGCGAAACAUGAGGAUCACCCAUGUU [SSArg A #3]” was tested, and the “apparent KD of MS2 coat protein” value was 26.3 nM.
“UUAAUCUUGGUUGAAAACAAUUAAGCAGAAGGAGCGUGAUAAAACACAGGUAGGUCGCUGAAGGGAACAUGAGGAUCACCCAUGU [AstrosSSArgA#14]” was tested, and the “apparent KD of MS2 coat protein” value was 25.6 nM.
In the case of “UUUUAACAUGAGGAUCACCCAUGUAAUGAUACCAGAGACGAAAGUCUCCCUUGGCAGCAUAAUCAUUACAUGAGAUGGAAACAUC [Theophylline A 7]”, the “apparent KD of MS2 coat protein” value is reported as 17.5 nM.
“UGGAUAAGGGUAAAUAGGAUAAGUACAGAAGGAGCGCGAAUAAACGCAGGUAGGUCGCUGGACAUGAGGAUCACCCAUGUAAAUG [Same State Arginine A GF 22]” was tested, and the “apparent KD of MS2 coat protein” value was 50 nM.
For “GAGUCCGCGGCGGCCGCCACUCGCGGCGCCACAUGGCGCCGGGACAUGAGGAUCACCCAUGUCCCGAGGACCGGGCCGAUCCUCA [Same State Typrtophan B GF4]”, the “apparent KD of MS2 coat protein” value was 14.5 nM.
“GGGUAUGAUCCGGAUACCAGCGAACAUGAGGAUCACCCAUGUGACCUAAGAUAGGCUCUACGCCCUUGGCAGCCGCGAUCGCAGA [Same State Theophylline B GF9]” was tested, and the “apparent KD of MS2 coat protein” value was 24.7 nM.
With “AUGCAUAUCAGAAGGAGCGUCUUUAACAUGAGGAUCACCCAUGUAACAUUGAAUUCGAUGAGACAGGUAGGUCGCUGAAUAGUAA [SS-ArgB24]” the “apparent KD of MS2 coat protein” value was 31.2 nM.
“ACCUGUACGAAAAGUGCAGGACACGGAAUACGAGGACCGGUACGGCCGCCACUCGGAUAAAACCUGAGGAUCACCCUGGUCCGUG [TrypAS 14 #AlternativeMS2 #Zipper #StaticStem]” was tested, and the “apparent KD of MS2 coat protein” value was 22.6 nM.
In the case of “AGUCUAUGAAGAGAUACCAGUGAGAGACAUAGACAUGAGGAUCACCCAUGUGACAUGAAGCACCCUUGGCAGCUCAACGAGCUCA [Theo B SS t1]”, the “apparent KD of MS2 coat protein” value is reported as 39 nM.
For “GAUUGGUAUAGAAGGAGCGUCGAAAAUGGGUAAACAUGAGGAUCACCCAUGUAAAGGGAACGACAGGUAGGUCGCUAUAUUAAUC [AstromonsSSArgB#30]”, the “apparent KD of MS2 coat protein” value was 200 nM.
In the case of “UUCCACCUAAAGCGUUGCCCUCGUGAUGAUACCAGUUUCAGCGGUAACCCUUGGCAGCAUCGGACAUGAGGAUCACCCAUGUGGA [theeternabot_exclusion_MS2_Theo_A_47]”, the “apparent KD of MS2 coat protein” value is reported as 107 nM.
With “CAGAACAUGAGGAUCACCCAUGUUAGGGAUACCAGCUCAGACAUGGGCCCUUGGCAGCUCUAUGGCUGACGAAAGUCAGCAUCUG [#16 SameState-TheophyllineA]” the “apparent KD of MS2 coat protein” value was 42.5 nM.
For “GGACAACAUGAGGAUCACCCAUGUCCUGAUACCAGUCAGCGCAGUGACCCUUGGCAGCAGACGGAUACGAAAUAACUGAGAGAUA [theeternabot_sameState_MS2_Theo_A_44]”, the “apparent KD of MS2 coat protein” value was 62 nM.
With “ACAUGAGGAUCACCCAUGUGAAGGCACGAUACCAGCUGAUCCCGUGGCCCUUGGCAGCGUCCGGUUUGGUCCGGCGGAUGAGACG [azamullin]” the “apparent KD of MS2 coat protein” value was 23.5 nM.
With “GGAUAGGACAGAAGGAGCGGCAUGGCAGAAACUGCAAUCCUCCUACACGAGGAUCACCCGUGUCAGGUAGGUCGCUGUCCUAUCG [ArgXB 13 #Zipper #MS2Left #StaticStem #Blueprint]” the “apparent KD of MS2 coat protein” value was 15 nM.
In the case of “GGUGUAUCCAUCGAUACCAGCCACCACCGAUAGACCACAUGAGGAUCACCCAUGUUGGGUGGCCCUUGGCAGCGGUGGCUGUGCC [Same State - Theophylline B Attempt #3 (HarryS)]”, the “apparent KD of MS2 coat protein” value is reported as 353 nM.
“ACAUGAGGAUCACCCAUGUAUUACCGGGAAGGAGCGCGUAAGGACGCAGGUAGGUCGCUCGGCGUCGUGCCGGAAGGCACGACGA [#1 Same State - Arginine A Attempt #22 (HarryS)]” was tested, and the “apparent KD of MS2 coat protein” value was 13.8 nM.
“GUCCGCAGCCGAAGGAGCGCUAGAAGGUGACAUGAGGAUCACCCAUGUGUGUGAUGUGGCUAGCAGGUAGGUCGCGGAGCGGAUU [Exclusion - Arginine B (Freestyle 18)]” was tested, and the “apparent KD of MS2 coat protein” value was 61.9 nM.
For “GAUAGUUGAAGGGAUACCAGCCUGGACAUGAGGAUCACCCAUGUAGCAUGUUUGAAACUGGGCCCUUGGCAGCCCAUAUUGUGUA [#11 Same State - Theophylline B]”, the “apparent KD of MS2 coat protein” value was 22.8 nM.
